Sequences and labels used below:
T1: wild-type KaiC (Synechococcus elongatus PCC 7942, UniProt Q79PF4 1-519)
T1 construct: KaiC, circadian clock protein of Synechococcus elongatus PCC 7942; also called KaiCWT; source: Escherichia coli, Strep-tagged recombinant protein, purified
T1 sequence (looked up): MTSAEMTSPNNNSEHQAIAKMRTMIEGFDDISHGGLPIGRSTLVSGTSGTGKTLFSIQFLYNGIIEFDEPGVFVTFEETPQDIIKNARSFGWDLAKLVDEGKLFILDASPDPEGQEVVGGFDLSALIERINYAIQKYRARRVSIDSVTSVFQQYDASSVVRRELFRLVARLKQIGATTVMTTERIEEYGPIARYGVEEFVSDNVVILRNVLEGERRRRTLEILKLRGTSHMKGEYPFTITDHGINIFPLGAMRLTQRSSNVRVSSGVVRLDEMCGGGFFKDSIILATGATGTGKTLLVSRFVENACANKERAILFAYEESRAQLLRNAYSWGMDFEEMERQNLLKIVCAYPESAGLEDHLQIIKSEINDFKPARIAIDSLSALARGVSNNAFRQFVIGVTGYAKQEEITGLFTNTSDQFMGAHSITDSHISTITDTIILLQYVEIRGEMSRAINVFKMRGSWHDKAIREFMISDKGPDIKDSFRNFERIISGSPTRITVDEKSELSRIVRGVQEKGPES

T2: KaiCDE (KaiC mutant with aspartate and glutamate residues at positions 431 and 432) (Synechococcus elongatus PCC 7942, UniProt Q79PF4 1-519, aspartate at position 431 | glutamate at position 432)
T2 construct: KaiC, circadian clock protein of Synechococcus elongatus PCC 7942, mimic of hyperphosphorylated KaiC; source: Escherichia coli, Strep-tagged recombinant protein, purified
T2 sequence (looked up): T1 sequence (looked up) with S431D, T432E

B1: KaiCDT (KaiC phospho-mimicking mutant with aspartate at Ser431) (natural protein, Synechococcus elongatus PCC 7942, UniProt Q79PF4 1-519, looked up)
chain: T1 sequence (looked up) with S431D
notes: KaiC, circadian clock protein of Synechococcus elongatus PCC 7942, mono-phosphorylation mimic at Ser431; 72d-KaiCDT is the same protein, 72.2% deuterated, used in iCM-SANS; Printed mass of KaiC 65 kDa; also called h-KaiCDT; 72d-KaiCDT
B2: KaiB (natural protein, Synechococcus elongatus PCC 7942, UniProt Q79PF5 1-102, looked up)
chain: MSPRKTYILKLYVAGNTPNSVRALKTLKNILEVEFQGVYALKVIDVLKNPQLAEEDKILATPTLAKVLPLPVRRIIGDLSDREKVLIGLDLLYGELQDSDDF
notes: KaiB, circadian clock protein of Synechococcus elongatus PCC 7942; printed mass of KaiB 14 kDa; Six KaiB protomers stand in the complex with the KaiC hexamer; also called h-KaiB; source: Escherichia coli, Strep-tagged recombinant protein, purified

Positions count from the first letter of the chain named.

Data set [1] concerns the molecule itself. In words: native MS; nanoflow ESI-MS under non-denaturing conditions; 20 uM KaiCDT mixed with 3.3, 10, 20 and 30 uM KaiB (monomer), 30 °C for 4 h, exchanged into 150 mM ammonium acetate pH 7.5.
Data set [2] deals with T1, wild-type KaiC. Kind of data set: native gel or EMSA; BN-PAGE (NativePAGE Novex Bis-Tris gel); KaiC variants incubated with KaiB at 30 °C for 12 h. The settings on record: both partners purified. (In general: In EMSA bound probe runs differently from free probe, usually more slowly.)
The target of data set [3] is T2, KaiCDE (KaiC mutant with aspartate and …). Described as above. The settings on record: both partners purified.
In data set [4] the target is B1. Kind of data set: native MS; nanoflow ESI-MS under non-denaturing conditions; 20 uM KaiCDT mixed with 3.3, 10, 20 and 30 uM KaiB (monomer), 30 °C for 4 h, exchanged into 150 mM ammonium acetate pH 7.5. The note with it: both partners purified.

What is called stoichiometry N is the number of molecules, sites or subunits per partner or assembly. Consider B1, for which the “stoichiometry N” value in data set [1] worked out at 6.
In the case of B2, the binding result in data set [2] and in data set [3] was “binds” throughout. In data set [4], the “stoichiometry N” value was 6 KaiB protomers per KaiC hexamer.

The record behind these values is publication PMC5067715, “Structural characterization of the circadian clock protein complex composed of KaiB and KaiC by inverse contrast-matching small-angle neutron scattering” (Scientific Reports, 2016).
